Patent US20190225661A1

Target: non-specific polyclonal IgG
Experiment: non-specific polyclonal IgG (2 ug/ml) added as bait, protein A Sepharose pull-down, deoxycholate release, HGF ELISA

Hepatocyte Growth Factor (HGF) in human epicardial-derived cell-conditioned medium (EPI CdM) (ligand)
HGF recovered from beads after pull-down with IgG: 2.8 ng/mL
